Substitutions are numbered along the chain they refer to.
Assays:
MG103-6 = target: T1, MG103-6 (uncultivated organism); test: crRNA processing by RNAseq: 6 nt trimmed from 5' of repeat, 30 nt repeat, 21 and 26 nt spacers
T1 chain: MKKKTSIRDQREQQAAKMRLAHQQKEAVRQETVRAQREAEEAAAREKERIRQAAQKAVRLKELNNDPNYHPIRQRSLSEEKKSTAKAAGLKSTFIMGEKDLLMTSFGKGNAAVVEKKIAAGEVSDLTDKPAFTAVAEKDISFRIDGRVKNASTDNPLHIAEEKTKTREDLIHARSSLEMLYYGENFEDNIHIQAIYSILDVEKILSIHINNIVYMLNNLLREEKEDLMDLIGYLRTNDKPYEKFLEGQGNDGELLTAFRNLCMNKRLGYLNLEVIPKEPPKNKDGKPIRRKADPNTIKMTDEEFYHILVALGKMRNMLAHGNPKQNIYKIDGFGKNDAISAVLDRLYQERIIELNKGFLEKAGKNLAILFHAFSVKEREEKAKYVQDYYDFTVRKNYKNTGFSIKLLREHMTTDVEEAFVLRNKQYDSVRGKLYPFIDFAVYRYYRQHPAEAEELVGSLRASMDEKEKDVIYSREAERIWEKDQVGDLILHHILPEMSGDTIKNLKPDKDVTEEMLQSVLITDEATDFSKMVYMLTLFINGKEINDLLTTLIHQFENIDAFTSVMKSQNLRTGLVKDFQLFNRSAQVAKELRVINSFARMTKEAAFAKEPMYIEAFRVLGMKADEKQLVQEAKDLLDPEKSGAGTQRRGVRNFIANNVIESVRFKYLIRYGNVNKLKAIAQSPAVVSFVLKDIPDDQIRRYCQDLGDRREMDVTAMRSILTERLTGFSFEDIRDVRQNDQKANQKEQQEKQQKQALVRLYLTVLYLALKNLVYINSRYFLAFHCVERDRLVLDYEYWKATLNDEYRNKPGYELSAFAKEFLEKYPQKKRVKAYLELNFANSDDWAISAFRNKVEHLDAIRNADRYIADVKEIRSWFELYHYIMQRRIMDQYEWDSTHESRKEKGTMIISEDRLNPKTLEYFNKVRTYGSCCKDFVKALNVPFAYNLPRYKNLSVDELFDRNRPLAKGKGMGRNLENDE
Method: (§1) RNA was extracted from PURExpress cell lysate expressions following the Quick-RNA™ Miniprep Kit (Zymo Research) and eluted in 30-50 μL of water. 5′ ends of the processed crRNA were mono-phosphorylated with 10 units of T4 Polynucleotide Kinase, 40 units of Murine RNase Inhibitor, and 1X of T4 DNA Ligase Buffer (NEB Inc.) in 25-50 μL reactions. Following a 30-minute incubation at 37° C., reactions were stopped with column purification using Monarch® RNA Cleanup Kit ([…]) (NEB Inc.). The total concentration of the transcripts were measured on a Nanodrop, Tapestation, and Qubit.
(§2) 100ng-1pg of total RNA from each sample were prepped for RNA sequencing using the NEBNext Small RNA Library Prep Set for Illumina (NEB Inc.). Amplicons between 150-300 bp were quantified by Tapestation and Qubit and pooled to a concentration of 4 nM. A concentration of […] was loaded into a MiSeq V3 kit and sequenced in a Miseq system (Illumina) for 176 total cycles. The RNAseq reads were used to identify the processed crRNA sequences. Illumina adapters were removed from all reads using fastp (see e.g., Bioinformatics 2018, 34 (17), i884-i890, which is incorporated by reference herein in its entirety). […]

MG103-12 = target: T2, MG103-12 (uncultivated organism); test: crRNA processing by RNAseq: 30 nt repeat, 21 nt spacer
T2 chain: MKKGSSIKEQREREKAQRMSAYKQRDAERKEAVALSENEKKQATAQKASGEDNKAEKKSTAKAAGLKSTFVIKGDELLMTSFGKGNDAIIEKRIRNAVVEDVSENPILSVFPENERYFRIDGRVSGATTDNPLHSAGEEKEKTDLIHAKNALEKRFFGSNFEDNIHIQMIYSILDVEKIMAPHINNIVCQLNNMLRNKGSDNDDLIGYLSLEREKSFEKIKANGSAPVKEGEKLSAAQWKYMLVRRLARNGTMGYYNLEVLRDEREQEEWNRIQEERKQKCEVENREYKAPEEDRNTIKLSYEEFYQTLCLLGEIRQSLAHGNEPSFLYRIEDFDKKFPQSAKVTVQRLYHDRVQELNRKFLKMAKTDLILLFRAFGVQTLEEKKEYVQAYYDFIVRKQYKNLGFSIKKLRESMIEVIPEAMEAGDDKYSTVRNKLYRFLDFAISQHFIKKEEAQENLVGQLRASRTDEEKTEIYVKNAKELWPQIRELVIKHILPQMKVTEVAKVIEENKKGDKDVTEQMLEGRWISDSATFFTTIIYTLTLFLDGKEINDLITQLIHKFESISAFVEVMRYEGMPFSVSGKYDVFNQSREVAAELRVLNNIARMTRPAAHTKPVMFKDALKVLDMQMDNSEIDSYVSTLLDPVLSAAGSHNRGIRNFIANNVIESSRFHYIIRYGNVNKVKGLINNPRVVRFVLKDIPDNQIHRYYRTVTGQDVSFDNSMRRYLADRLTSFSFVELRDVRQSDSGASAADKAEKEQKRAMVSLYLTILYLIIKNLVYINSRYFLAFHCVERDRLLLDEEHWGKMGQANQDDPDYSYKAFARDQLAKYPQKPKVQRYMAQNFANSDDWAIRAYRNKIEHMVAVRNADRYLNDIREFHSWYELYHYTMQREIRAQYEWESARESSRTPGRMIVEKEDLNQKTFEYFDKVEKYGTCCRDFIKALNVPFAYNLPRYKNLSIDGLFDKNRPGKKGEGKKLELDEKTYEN
Method: as §1, §2

MG105-1 = target: T3, MG105-1 (uncultivated organism); test: crRNA processing: 10 nt trimmed 5' of spacer, 36 nt repeat retained; spacer 5' of repeat
T3 chain: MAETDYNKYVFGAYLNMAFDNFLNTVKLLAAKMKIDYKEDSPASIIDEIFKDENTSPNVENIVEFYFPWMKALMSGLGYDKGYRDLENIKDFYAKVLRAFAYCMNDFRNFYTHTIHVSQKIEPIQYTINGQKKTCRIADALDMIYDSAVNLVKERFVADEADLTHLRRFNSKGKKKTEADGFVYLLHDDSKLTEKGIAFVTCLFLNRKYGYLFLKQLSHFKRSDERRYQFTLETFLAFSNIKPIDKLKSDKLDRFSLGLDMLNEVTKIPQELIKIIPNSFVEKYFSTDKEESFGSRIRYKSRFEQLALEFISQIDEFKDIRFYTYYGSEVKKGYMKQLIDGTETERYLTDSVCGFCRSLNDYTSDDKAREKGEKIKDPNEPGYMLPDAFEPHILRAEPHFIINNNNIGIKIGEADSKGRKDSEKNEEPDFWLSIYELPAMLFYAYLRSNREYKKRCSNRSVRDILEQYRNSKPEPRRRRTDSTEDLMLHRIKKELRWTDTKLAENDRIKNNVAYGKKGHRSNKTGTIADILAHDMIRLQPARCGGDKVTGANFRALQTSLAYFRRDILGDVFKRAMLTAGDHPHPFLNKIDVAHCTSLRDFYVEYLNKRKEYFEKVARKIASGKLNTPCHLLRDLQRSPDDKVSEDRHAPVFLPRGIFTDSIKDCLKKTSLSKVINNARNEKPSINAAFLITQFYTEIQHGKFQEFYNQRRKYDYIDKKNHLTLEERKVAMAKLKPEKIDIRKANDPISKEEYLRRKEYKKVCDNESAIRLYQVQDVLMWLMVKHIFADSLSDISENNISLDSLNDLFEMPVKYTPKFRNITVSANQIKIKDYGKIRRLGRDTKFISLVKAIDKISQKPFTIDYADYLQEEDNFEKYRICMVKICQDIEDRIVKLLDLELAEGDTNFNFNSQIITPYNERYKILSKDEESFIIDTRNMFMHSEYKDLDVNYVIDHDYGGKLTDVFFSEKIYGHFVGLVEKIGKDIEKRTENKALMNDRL
Method: as §1, §2

B1: 103-6_MA_30_REV array (ssRNA)
RNA: GGAACUACACCCUUACGAACUCGUAGGGGUCUGAAACCCGUCCAGCUCGACCAGGAUGGGAACAACGGAACUACACCCUUACGAACUCGUAGGGGUCUGAAACAGGCUAGGUGGAGGCUCAGUG
B1: binds (MG103-6).

B2: 103-12_MA_30_FWD array (ssRNA)
RNA: B1 RNA with G17C, A18G, C20U, C22G, G26A, G83C, A84G, C86U, C88G, G92A
B2: binds (MG103-12).

B3: 105-1_MA_30_REV array (ssRNA)
RNA: GGUUGUAACAGCCUUUAGUUUGUAAGGUAAAAACAACCCGUCCAGCUCGACCAGGAUGGGAACAACGGUUGUAACAGCCUUUAGUUUGUAAGGUAAAAACAACAGGCUAGGUGGAGGCUCAGUG
B3: binds (MG105-1).

From US20240352433, “ENZYMES WITH HEPN DOMAINS” (Metagenomi, Inc., published 2024)
